The record followed here is article PMC3839849 (2013).

For the experiment, the target named is CaV1.2 IQ domain (Homo sapiens, UniProt Q13936, Ca2+). The experiment is described as follows: ITC.
Sequence of CaV1.2 IQ domain (Q13936 1665-1685): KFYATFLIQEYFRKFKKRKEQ

B1: CaBP1 C-lobe (protein)
chain: ADMIGVKELRDAFREFDTNGDGEISTSELREAMRKLLGHQVGHRDIEEIIRDVDLNGDGRVDFEEFVRMMSR
For the molecule B1, the Kd (in general, the constant that tells how readily two partners part at equilibrium) is 10.5 nM.
